What was measured:
[1] = target: Cyclin T1 (CycT1, hCycT1) (UniProt O60563); test: anti-FLAG co-IP, Western blot; conditions: reference: wild type
FLAG-CDK9 S175D (human) [2] = target: FLAG-CDK9 S175D (human) (UniProt P50750)
FLAG-CDK9 S175A (human) = FLAG-CDK9 S175A (human) (UniProt P50750); test: co-IP; anti-FLAG IP of FLAG-CDK9 wildtype or mutants from latently infected Jurkat T-cells induced for 16 hr with TNF-α to express Tat, Western blot for BRD4, Tat and CycT1; levels normalised to total CDK9, three experiments
FLAG-CDK9 S175D (human) [3] = target: FLAG-CDK9 S175D (human) (UniProt P50750); test: as above
BRD4 = BRD4 (UniProt O60885); test: anti-FLAG co-IP, Western blot; conditions: reference: wild type
Tat = test: anti-FLAG co-IP, Western blot; conditions: reference: wild type; sites S175
[4] = target: FLAG-tagged CDK9 (293T cells) (human) (UniProt P50750); test: co-IP; anti-FLAG IP from 293T cells stably expressing FLAG-tagged CDK9, with or without transiently transfected HA-tagged Tat, with or without PMA for 1 hr or 2 hrs, Western blot
FLAG-HEXIM1 = FLAG-HEXIM1 (UniProt O94992); test: co-IP; anti-FLAG IP of FLAG-HEXIM1 from whole cell extracts of 2D10 cells, unstimulated or PMA for 1 h with or without U0126, FLAG peptide elution, Western blot
FLAG-CDK9 S175A = target: T1, FLAG-CDK9 S175A (human, UniProt P50750 1-372, S175A); test: co-IP; anti-FLAG M2 agarose IP of FLAG-CDK9 wildtype or mutants from whole cell extracts (lysis buffer A) of Jurkat 2D10 cells, FLAG peptide elution, Western blot; densitometry normalised to total immunoprecipitated CDK9, five experiments; conditions: partners not purified
T1 construct: also called S175A CDK9; Ser175Ala

FLAG-CDK9 S175D = target: T2, FLAG-CDK9 S175D (human, UniProt P50750 1-372, S175D); test: as above; conditions: partners not purified
T2 construct: also called S175D CDK9; Ser175Asp

FLAG-CDK9 T186A = target: T3, FLAG-CDK9 T186A (human, UniProt P50750 1-372, T186A); test: as above; conditions: partners not purified
T3 construct: also called T186A CDK9

FLAG-CDK9 T186D = target: T4, FLAG-CDK9 T186D (human, UniProt P50750 1-372, T186D); test: as above; conditions: partners not purified
T4 construct: also called T186D CDK9

“CDK9 (FLAG-CDK9 isoform 1) (from UniProt P50750) S175D” gave a percent of reference ([1]; sites S175) of 78.9%.

Work on “HIV Tat H13L (from UniProt P04608 1-86) (natural protein)” yielded a CDK9 kinase activity of the affinity purified FLAG-CDK9 complex in the in vitro RNAP II CTD kinase assay, against wildtype CDK9 (FLAG-CDK9 S175D (human) [2]) of 159%, a CDK9 kinase activity of the affinity purified FLAG-CDK9 complex in the in vitro autophosphorylation assay, against wildtype CDK9 (FLAG-CDK9 S175D (human) [2]) of 117% and a percent of wildtype association (FLAG-CDK9 S175A (human)) of 59.2%. It also gave a percent of wildtype association (FLAG-CDK9 S175D (human) [3]) of 109%.

With “CDK9 (FLAG-CDK9 isoform 1) (from UniProt P50750) S175A” the percent of reference (BRD4; sites S175) was 1.9%, the percent of reference ([1]; sites S175) was 98.9% and the percent of reference (Tat) was 59.2%.

“HA-tagged Tat (from UniProt P04608 1-86) (natural protein)” was tested, and the percent increase of Tat associated with CDK9 after 1 hr of PMA [4] was 12%, the percent of HEXIM1 released from FLAG-CDK9 on expression of HA-Tat [4] was 71% and the percent of LARP7 released from FLAG-CDK9 on expression of HA-Tat [4] was 82%.

Molecule “endogenous CDK9 (from UniProt P50750 1-372) (enzyme)” has a percent reduction of association after PMA for 1 h (FLAG-HEXIM1) of 30%.

For “CDK9 (FLAG-CDK9 isoform 1) (from UniProt P50750) T186D”, the percent of reference (BRD4; sites T186) was 61.6% and the percent of reference ([1]; sites T186) was 49.4%.

B1: HEXIM1 (natural protein, human (endogenous in Jurkat), UniProt O94992 1-359, looked up)
chain: MAEPFLSEYQHQPQTSNCTGAAAVQEELNPERPPGAEERVPEEDSRWQSRAFPQLGGRPGPEGEGSLESQPPPLQTQACPESSCLREGEKGQNGDDSSAGGDFPPPAEVEPTPEAELLAQPCHDSEASKLGAPAAGGEEEWGQQQRQLGKKKHRRRPSKKKRHWKPYYKLTWEEKKKFDEKQSLRASRIRAEMFAKGQPVAPYNTTQFLMDDHDQEEPDLKTGLYSKRAAAKSDDTSDDDFMEEGGEEDGGSDGMGGDGSEFLQRDFSETYERYHTESLQNMSKQELIKEYLELEKCLSRMEDENNRLRLESKRLGGDDARVRELELELDRLRAENLQLLTENELHRQQERAPLSKFGD
notes: source: endogenous, Jurkat T-cell whole cell extract
B1 was tested, and the “percent co-immunoprecipitated against wildtype CDK9” value (“percent co-immunoprecipitated” for short) (FLAG-CDK9 S175A) was > 90%, the “percent co-immunoprecipitated” value (FLAG-CDK9 S175D) was 67.5% and the “percent reduction of co-precipitation against wildtype CDK9” value (shortened to “percent reduction of co-precipitation”) (FLAG-CDK9 T186A) was > 99%. For the same molecule, the “percent reduction of co-precipitation” value (FLAG-CDK9 T186D) was > 99%.

B2: LARP7 (natural protein, human (endogenous in Jurkat), UniProt Q4G0J3 1-582, looked up)
chain: METESGNQEKVMEEESTEKKKEVEKKKRSRVKQVLADIAKQVDFWFGDANLHKDRFLREQIEKSRDGYVDISLLVSFNKMKKLTTDGKLIARALRSSAVVELDLEGTRIRRKKPLGERPKDEDERTVYVELLPKNVNHSWIERVFGKCGNVVYISIPHYKSTGDPKGFAFVEFETKEQAAKAIEFLNNPPEEAPRKPGIFPKTVKNKPIPALRVVEEKKKKKKKKGRMKKEDNIQAKEENMDTSNTSISKMKRSRPTSEGSDIESTEPQKQCSKKKKKRDRVEASSLPEVRTGKRKRSSSEDAESLAPRSKVKKIIQKDIIKEASEASKENRDIEISTEEEKDTGDLKDSSLLKTKRKHKKKHKERHKMGEEVIPLRVLSKSEWMDLKKEYLALQKASMASLKKTISQIKSESEMETDSGVPQNTGMKNEKTANREECRTQEKVNATGPQFVSGVIVKIISTEPLPGRKQVRDTLAAISEVLYVDLLEGDTECHARFKTPEDAQAVINAYTEINKKHCWKLEILSGDHEQRYWQKILVDRQAKLNQPREKKRGTEKLITKAEKIRLAKTQQASKHIRFSEYD
notes: as for B1
In the case of B2, the “percent co-immunoprecipitated” value (FLAG-CDK9 S175A) is reported as > 90%, the “percent co-immunoprecipitated” value (FLAG-CDK9 S175D) is reported as 77.2% and the “percent reduction of co-precipitation” value (FLAG-CDK9 T186A) is reported as > 99%. For the same molecule, the “percent reduction of co-precipitation” value (FLAG-CDK9 T186D) was > 99%.
